From PMC8277567, “Thermostable D-amino acid decarboxylases derived from Thermotoga maritima diaminopimelate decarboxylase” (Protein Engineering, Design and Selection, 2021)

Legend:
NC(CCCCC(=O)O)C(=O)O = experiment: purified protein; details: similar conditions to wild-type assay; 2-APA 0-10 mM; racemic substrate
[1] = test system: N[C@H](CCC[C@H](N)C(=O)O)C(=O)O; experiment: purified protein; details: 100 mM TEA-HCl pH 7.8, PLP, 10 mM MgCl2, 30 C, DAP 0-10 mM

TmDAPDC (diaminopimelate decarboxylase from T. maritima) (Thermotoga maritima MSB8; E315T)
Km (NC(CCCCC(=O)O)C(=O)O): 0.32 (0.03) mM
kcat (NC(CCCCC(=O)O)C(=O)O): 0.2 s⁻¹

TmDAPDC (diaminopimelate decarboxylase from T. maritima) (Thermotoga maritima MSB8)
Km [1]: 0.27 (0.06) mM
kcat [1]: 0.075 s⁻¹
